Laboratory results from paper PMC10350030 (bioRxiv, 2023).

How the values were obtained:
Aβ42 = Aβ42 (Homo sapiens, UniProt P05067); assay: Fluorescence polarization; type: binding; details: read-out: apparent Kd for the Aβ42/CP interaction; fluorescence polarization of FAM-Aβ42 with increasing concentrations of CP
biotinylated-Aβ42 = biotinylated-Aβ42 (Homo sapiens, UniProt P05067); assay: Single-molecule TIRF imaging of Cy3-CP on immobilized biotinylated Aβ42; type: binding
[1] = Fluorescence spectra of FAM-Aβ42 during incubation in PBS; type: physicochemical; details: PBS buffer, 0 to 60 minutes, in the presence of CP

Chain of biotinylated-Aβ42 (P05067 672-713): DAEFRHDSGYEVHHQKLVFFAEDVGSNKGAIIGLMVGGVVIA
Chain of Aβ42 (P05067 672-713, one chain of several): as the sequence (P05067 672-713) above

B1: ceruloplasmin (protein)
chain: KEKHYYIGIIETTWDYASDHGEKKLISVDTEHSNIYLQNGPDRIGRLYKKALYLQYTDETFRTTIEKPVWLGFLGPIIKAETGDKVYVHLKNLASRPYTFHSHGITYYKEHEGAIYPDNTTDFQRADDKVYPGEQYTYMLLATEEQSPGEGDGNCVTRIYHSHIDAPKDIASGLIGPLIICKKDSLDKEKEKHIDREFVVMFSVVDENFSWYLEDNIKTYCSEPEKVDKDNEDFQESNRMYSVNGYTFGSLPGLSMCAEDRVKWYLFGMGNEVDVHAAFFHGQALTNKNYRIDTINLFPATLFDAYMVAQNPGEWMLSCQNLNHLKAGLQAFFQVQECNKSSSKDNIRGKHVRHYYIAAEEIIWNYAPSGIDIFTKENLTAPGSDSAVFFEQGTTRIGGSYKKLVYREYTDASFTNRKERGPEEEHLGILGPVIWAEVGDTIRVTFHNKGAYPLSIEPIGVRFNKNNEGTYYSPNYNPQSRSVPPSASHVAPTETFTYEWTVPKEVGPTNADPVCLAKMYYSAVEPTKDIFTGLIGPMKICKKGSLHANGRQKDVDKEFYLFPTVFDENESLLLEDNIRMFTTAPDQVDKEDEDFQESNKMHSMNGFMYGNQPGLTMCKGDSVVWYLFSAGNEADVHGIYFSGNTYLWRGERRDTANLFPQTSLTLHMWPDTEGTFNVECLTTDHYTGGMKQKYTVNQCRRQSEDSTFYLGERTYYIAAVEVEWDYSPQREWEKELHHLQEQNVSNAFLDKGEFYIGSKYKKVVYRQYTDSTFRVPVERKAEEEHLGILGPQLHADVGDKVKIIFKNMATRPYSIHAHGVQTESSTVTPTLPGETLTYVWKIPERSGAGTEDSACIPWAYYSTVDQVKDLYSGLIGPLIVCRRPYLKVFNPRRKLEFALLFLVFDENESWYLDDNIKTYSDHPEKVNKDDEEFIESNKMHAINGRMFGNLQGLTMHVGDEVNWYLMGMGNEIDLHTVHFHGHSFQYKHRGVYSSDVFDIFPGTYQTLEMFPRTPGIWLLHCHVTDHIHAGMETTYTVLQNEDTKSG
Kd (Aβ42): 123 ± 6.7 nM
TIRF image brightness of CP/Aβ versus CP alone (biotinylated-Aβ42; Cy3-labeled CP, imaging for 10 minutes): much higher
half-lifetime of stable binding (biotinylated-Aβ42; TIRF, 100 nM CP-Cy3, no Vc): ~62.3 s
half-lifetime of transient binding (biotinylated-Aβ42; TIRF, 100 nM CP-Cy3, no Vc): about 14.6 s
stable K(slow) of CP/Aβ binding (biotinylated-Aβ42; TIRF, 100 nM CP-Cy3, no Vc, unit not given): about 0.011
half-lifetime of stable binding with Vc (biotinylated-Aβ42; TIRF, 100 nM CP-Cy3 with 250 μM Vc): 39.0 s
effect of CP on the fluorescence intensity decrease of FAM-Aβ42 [1]: considerably attenuated
